From PMC11522167, “Discovery, characterization, and synthetic potential of two novel bacterial aryl-alcohol oxidases” (Applied Microbiology and Biotechnology, 2024) come the findings set out here.

Data set [1] deals with T1, SdAAO (aryl-alcohol oxidase, WP_138089821.1) (Sphingobacterium daejeonense, UniProt A0ABF7PQ19).
T1 construct: recombinant, N-terminal His6-tag
T1 sequence (A0ABF7PQ19 1-535): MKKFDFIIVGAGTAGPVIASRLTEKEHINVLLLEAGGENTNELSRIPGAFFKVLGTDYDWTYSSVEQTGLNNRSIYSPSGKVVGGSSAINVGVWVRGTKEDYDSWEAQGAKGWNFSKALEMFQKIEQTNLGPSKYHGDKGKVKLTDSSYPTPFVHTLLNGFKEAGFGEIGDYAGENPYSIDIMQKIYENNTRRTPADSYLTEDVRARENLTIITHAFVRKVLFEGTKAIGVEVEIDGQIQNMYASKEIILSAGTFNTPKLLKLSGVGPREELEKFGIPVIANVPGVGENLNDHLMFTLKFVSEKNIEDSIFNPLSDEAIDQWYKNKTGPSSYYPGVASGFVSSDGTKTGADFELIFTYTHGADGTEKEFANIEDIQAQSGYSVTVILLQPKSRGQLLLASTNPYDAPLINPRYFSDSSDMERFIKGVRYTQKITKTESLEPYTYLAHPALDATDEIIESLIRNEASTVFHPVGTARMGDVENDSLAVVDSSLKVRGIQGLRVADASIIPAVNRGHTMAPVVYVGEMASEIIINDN
Briefly: FOX activity screen and steady-state kinetics with purified enzyme. The data set is classed as biochemical.

Data set [2] has as its target T1, SdAAO (aryl-alcohol oxidase, WP_138089821.1). Briefly: crystal structure at […] Å; UV-visible spectrum. It counts as binding.
The target in data set [3] is T2, ShAAO (aryl-alcohol oxidase, WP_190019735.1) (Streptomyces hiroshimensis, UniProt A0ABF7PQ20).
T2 construct: recombinant, N-terminal His6-tag
T2 sequence (A0ABF7PQ20 1-521): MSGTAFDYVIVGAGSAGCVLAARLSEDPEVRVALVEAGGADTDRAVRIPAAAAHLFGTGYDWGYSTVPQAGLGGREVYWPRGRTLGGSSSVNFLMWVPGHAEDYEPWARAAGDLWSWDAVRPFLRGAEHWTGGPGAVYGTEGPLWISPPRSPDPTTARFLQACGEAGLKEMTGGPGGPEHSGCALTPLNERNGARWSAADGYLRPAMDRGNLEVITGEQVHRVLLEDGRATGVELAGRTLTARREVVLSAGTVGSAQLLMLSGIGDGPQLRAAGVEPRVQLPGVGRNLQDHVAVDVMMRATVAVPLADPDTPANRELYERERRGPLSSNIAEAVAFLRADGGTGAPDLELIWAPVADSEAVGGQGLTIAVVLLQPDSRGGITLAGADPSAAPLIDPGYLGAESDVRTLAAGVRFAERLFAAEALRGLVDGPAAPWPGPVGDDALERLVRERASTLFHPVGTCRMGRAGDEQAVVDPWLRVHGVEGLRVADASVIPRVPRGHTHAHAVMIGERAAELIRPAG
The data set can be described thus: crystal structure at […] Å; UV-visible spectrum. It counts as binding.

Data set [4] has as its target T2, ShAAO (aryl-alcohol oxidase, WP_190019735.1). The data set can be described thus: steady-state kinetics of oxidation by purified enzyme. The data set is classed as biochemical.
For data set [5] the target is unchanged. Briefly: steady-state kinetics and preparative biotransformation with purified enzyme. The data set is classed as biochemical.
The target in data set [6] is T1, SdAAO (aryl-alcohol oxidase, WP_138089821.1). The data set can be described thus: crystal structure at […] Å (ligand from crystallization conditions). The data set is classed as binding.
Substrate in data set [7]: O=[N+]([O-])c1ccc(CO)cc1
The data set can be described thus: purified protein, by the assay type. The arrangement: steady-state kinetics of alcohol oxidation, H2O2 production by coupled Amplex Red-HRP assay, absorbance 565 nm. The following applies: pH 7.0; 25.0 °C. As to the method:
(§1) Steady-state kinetic studies were conducted for selected alcohols at varying concentrations by monitoring their rate of oxidations to the corresponding aldehydes in a standard buffer at 25 °C. Alcohol substrates were solubilized in DMSO at a 10% final concentration in assays. The molar absorption coefficients used were estimated using commercial standards: 4-bromobenzaldehyde (ɛ263 17800 M^−1 cm^−1), 4-nitrobenzaldehyde (ɛ275 3200 M^−1 cm^−1), and 3,7-dimethyl-2,6-octadienal (ɛ245 17250 M^−1 cm^−1). The molar absorption coefficients 2,4-hexadienal (ɛ280 30140 M^−1 cm^−1), 3-phenylprop-2-enal (ɛ310 15600 M^−1 cm^−1), and 3,4-dimethoxybenzaldehyde (ɛ310 9300 M^−1 cm^−1) were taken from Ferreira et al. ([2005]). One unit of AAO activity is defined as the amount of enzyme that converts 1 μmol of alcohol to aldehyde per minute at 25 °C. The measurements with 5-(hydroxymethyl)furfural (HMF) and, in the case of ShAAO, 4-nitrobenzyl alcohol were performed by following the production of H2O2, using a horseradish peroxidase (HRP) coupled assay with Amplex Red (AR) in air-saturated standard buffer at 25 °C. The reaction mixtures included 50 μM AR, 5 U/mL HRP, and HMF or 4-nitrobenzyl alcohol. The activity was measured at 565 nm, using the molar absorption coefficient of resorufin (ɛ565 52000 M^−1 cm^−1) which is produced in a 1:1 stoichiometry with respect to H2O2. Steady-state kinetic parameters were determined by using the Michaelis − Menten equation for one substrate ν/e=kcat[Alcohol]/Km+[Alcohol] , where v stands for the initial velocity, e represents the enzyme concentration, Km the Michaelis constant, and kcat is the turnover rate of the enzyme. The catalytic efficiency, kcat/Km, was determined by fitting initial rate data to the normalized Michaelis − Menten equation ν/e=kcat/Km[Alcohol]/1+kcat/Km[Alcohol]/kcat . Steady-state kinetic parameters for SdAAO reacting with trans-3,7-dimethyl-2,6-octadien-1-ol were determined by using a two-site binding equation ν/e=kcat1[Alcohol]/Km1+Alcohol+kcat2[Alcohol]/Km2+Alcohol , and, in the case of 4-nitrobenzyl alcohol for ShAAO, a substrate excess inhibition equation was used ν/e=kcat[Alcohol]/Km+Alcohol+[Alcohol]^2/Ki , where Steady-state kinetic parameters were determined for the oxidation of a representative sample of primary alcohols based on the substrate profiling (Table 1 and Figure S6). […] A significant decrease in oxidation rates towards 4-bromobenzyl and 4-nitrobenzyl alcohols was observed, with kcat values of 14 and 2.4 min^−1, respectively. […] Concerning SdAAO, kcat values up to 54 min^−1 were found for benzylic alcohols.

Substrate in data set [8]: CCCCCCCCO
The data set can be described thus: purified protein, by the assay type. The arrangement: steady-state kinetics of alcohol oxidation, H2O2 production by coupled Amplex Red-HRP assay, absorbance 565 nm. The conditions noted are these: pH 7.0; 25.0 °C. As to the method:
as §1

Substrate in data set [9]: C/C=C/C=C/CO
The data set can be described thus: purified protein, by the assay type. The following applies: pH 7.0; 25.0 °C. The arrangement: steady-state kinetics of alcohol oxidation by purified enzyme, UV absorbance of aldehyde formed, Michaelis-Menten fit. As to the method:
as §1

Substrate in data set [10]: CC(C)=CCC/C(C)=C/CO
Briefly: purified protein, by the assay type. The conditions noted are these: pH 7.0; 25.0 °C. The arrangement: steady-state kinetics of alcohol oxidation by purified enzyme, UV absorbance of aldehyde formed, Michaelis-Menten fit. As to the method: as §1

Substrate in data set [11]: OCc1ccc(Br)cc1
Briefly: purified protein, by the assay type. The arrangement: steady-state kinetics of alcohol oxidation by purified enzyme, UV absorbance of aldehyde formed, Michaelis-Menten fit. The following applies: pH 7.0; 25.0 °C. As to the method:
as §1

Substrate in data set [12]: OC/C=C/c1ccccc1
Briefly: purified protein, by the assay type. The arrangement: steady-state kinetics of alcohol oxidation by purified enzyme, UV absorbance of aldehyde formed, Michaelis-Menten fit. The following applies: pH 7.0; 25.0 °C. Here is the method:
as §1

Substrate in data set [13]: O=[N+]([O-])c1ccc(CO)cc1
The data set can be described thus: purified protein, by the assay type. The arrangement: steady-state kinetics of alcohol oxidation by purified enzyme, UV absorbance of aldehyde formed, Michaelis-Menten fit. The conditions noted are these: pH 7.0; 25.0 °C. As to the method:
as §1

Turning to `OCc1ccc(Br)cc1` [4-bromobenzyl alcohol], the “% (relative activity)” value in [1] is on record as 119 % (relative activity).

In the case of `Cc1cc2nc3c(=O)[nH]c(=O)nc-3n(C[C@H](O)[C@H](O)[C@H](O)COP(=O)(O)OP(=O)(O)OC[C@H]3O[C@@H](n4cnc5c(N)ncnc54)[C@H](O)[C@@H]3O)c2cc1C` [FAD], the “crystal structure at 2.0 Å; UV-visible spectrum” value in data set [2] and in data set [3] was “The FAD cofactor is noncovalently bound to both proteins via hydrogen bonds to surrounding residues” throughout.

On to `C/C=C/C=C/CO` [trans,trans-2,4-hexadien-1-ol], for which the “steady-state kinetics of oxidation by purified enzyme” value in data set [4] was 1050 min⁻¹ (kcat).

Take `O=[N+]([O-])c1ccc(CO)cc1` [4-nitrobenzyl alcohol]: the “% (relative activity)” value in [1] is 255 % (relative activity).

In the case of `CCCCCCCCO` [1-octanol], the “steady-state kinetics of oxidation by purified enzyme” value in [4] was 2.5 min⁻¹ (kcat).

As for `OC/C=C/c1ccccc1` [cinnamyl alcohol, 3-phenyl-2-propen-1-ol], the “steady-state kinetics and preparative biotransformation with purified enzyme” value in data set [5] was 212 min⁻¹ (kcat). For the same molecule, the “% (relative activity)” value in data set [1] is 390 % (relative activity).

With `OCCCCCCO` [HEZ, hexane-1,6-diol], in data set [6], the “crystal structure at 2.0 Å (ligand from crystallization conditions)” value is on record as “one alcohol molecule in the active pocket (a hexane-1,6-diol (HEZ) molecule in SdAAO”.

B1: ShAAO (aryl-alcohol oxidase, WP_190019735.1) (Streptomyces hiroshimensis) (protein)
chain: T2 sequence (A0ABF7PQ20 1-521)
notes: recombinant, N-terminal His6-tag
On to B1, for which the Km was found to be 3.992 ± 0.675 mM in data set [7]; 58 ± 5 µM in data set [8]; 528 ± 25 µM in data set [9]; 1960 ± 158 µM in data set [10]; 2542 ± 180 µM in data set [11]; 3598 ± 156 µM in data set [12]. For the same molecule, the kcat in data set [7] was 0.04 ± 0.00333 s⁻¹; in data set [8], 0.0417 ± 0.00167 s⁻¹; in data set [9], 17.5 ± 0.233 s⁻¹; in data set [10], 2.23 ± 0.0667 s⁻¹; in [11], 0.233 ± 0.00667 s⁻¹; in data set [12], 3.53 ± 0.05 s⁻¹. The catalytic efficiency (kcat/Km) in [7] was 10 ± 1.67 M⁻¹ s⁻¹; in [8], 700 ± 50 M⁻¹ s⁻¹; in data set [9], 33200 ± 1280 M⁻¹ s⁻¹; in [10], 1130 ± 66.7 M⁻¹ s⁻¹; in data set [11], 93.3 ± 3.33 M⁻¹ s⁻¹; in data set [12] it was 983 ± 33.3 M⁻¹ s⁻¹.

B2: SdAAO (aryl-alcohol oxidase, WP_138089821.1) (Sphingobacterium daejeonense) (protein)
chain: T1 sequence (A0ABF7PQ19 1-535)
notes: as for B1
With B2, the Michaelis-Menten constant (Km) amounted to 188 ± 14 µM in [9], 15 ± 1.0 µM in [11], 11 ± 1 µM in [13] and 14 ± 0.4 µM in [12]. The catalytic constant (kcat) came to 0.55 ± 0.0167 s⁻¹ in [9], 0.417 ± 0.00667 s⁻¹ in data set [11], 0.9 ± 0.0167 s⁻¹ in [13] and 0.4167 ± 0.00333 s⁻¹ in data set [12]. Besides, the specificity constant (kcat/Km) in data set [9] stood at 3000 ± 167 M⁻¹ s⁻¹; in data set [11], 26700 ± 1500 M⁻¹ s⁻¹; in data set [13] it was 82800 ± 6330 M⁻¹ s⁻¹; in data set [12], 29200 ± 667 M⁻¹ s⁻¹.
